In patent publication US7309578B2, “Therapeutic treatment of chronic obstructive pulmonary disease” (The Trustees of Columbia University in the City of New York, priority 2000, dated 2007):

What was measured:
[1] = test system: small airway epithelial cells, lung microvascular endothelial cells, lung fibroblasts; assay: Transfection of lung cells with a sFrp1 expression vector, Annexin-V-Biotin assay; assay type: cell-based, human; conditions: for apoptosis-inducing activity on transfection: normal human primary lung epithelial, endothelial and fibroblast cells transfected with sFrp1-Gfp expression vector
Description: (§1) Transfection of Lung Cells with a sFrp1 Expression Vector: The mouse sFrp1 full length cDNA was generously provided by Drs. Jeremy Nathans and Amir Rattner, John Hopkins University, Baltimore, and subcloned into a pCMS-EGFP vector (Clontech, Palo Alto, Calif.). A gene of sFrp1w&s inserted into the multiple cloning site at EcoRI and Sail sites between the cytomegalovirus early promoter and SV40 polyadenilation signals, which direct proper processing of the 3′ end of sFrp1 mRNA. The vector also has a Gfp (green fluorescent protein) gene located in downstream of the sFrp1-SV40 polyadenilation signals and ligated between the SV40 enhancer/promoter sequence and a polyadenylation signal from the bovine growth hormone gene. This vector construct allows transcriptions of sFrp1 and Gfp as separate proteins in transfected cells. Normal human primary cultured cells of small airway epithelial cells (SAEC 6043), lung microvascular endothelial cells (HMVEC L 6521-3), and lung fibroblasts (NHLF 5975) were obtained from BioWhittaker (Walkersville, Md.) and cultured in proper media containing 10% fetal bovine serum. Cells were plated 2 days before transfection in 4-well LabTek II chamber (Nalge Nunc International, Naperville, Ill.) at 2×10^4 cells/chamber and incubated at 37*C in 5% COj incubator. The sFrp1-Gjp expression vector or Gfp vector without sFrp gene (0.8 ujj) were transfected into cells using Lipofectaniine PLUS according to the manufacture's instruction (Gibco BRL). For Annexin-V-Biotin assay (Roche Diagnostics GmbH, Manheim, Germany), ceils were harvested at 72, 48, 24, 12 or 6 h after transfection and the reaction was detected by ExtraAvidin-Cy3 (Sigma). For caspase 3 activation assay, cells were fixed in 3% paraformaldehyde in PBS after 24 or 48 h of transfection and incubated with anti-human active caspase 3 antibody made by rabbit (x100, clone 9661. Cell Signaling Technology, Beverly, Mass.). Biotinylated goat IgG to rabbit IgG (Vector) and ExtraAvidin-Cy3 (Sigma) were used for detection of binding of a primary antibody.

[2] = test system: small airway epithelial cells, lung microvascular endothelial cells, lung fibroblasts; assay: Transfection of lung cells with a sFrp1 expression vector, caspase 3 activation assay (immunostaining); assay type: cell-based, human; conditions: 24 or 48 h after transfection
Description: as §1, with “Cells were plated 2 days before transfection in 4-well LabTek II chamber (Nalge Nunc International, Naperville, Ill.) at 2×10^4 cells/chamber and incubated at 37*C in 5% COj incubator. The sFrp1-Gjp expression vector or Gfp vector without sFrp gene (0.8 ujj) were transfected into cells using Lipofectaniine PLUS according to the manufacture's instruction (Gibco BRL).” left out, “For caspase 3 activation assay, cells were fixed in 3% paraformaldehyde in PBS after 24 or 48 h of transfection and incubated with anti-human active caspase 3 antibody made by rabbit (x100, clone 9661. Cell Signaling Technology, Beverly, Mass.). Biotinylated goat IgG to rabbit IgG (Vector) and ExtraAvidin-Cy3 (Sigma) were used for detection of binding of a primary antibody.” left out

B1: sFrp1: mouse secreted frizzled-related protein 1, expressed from full length cDNA in a pCMS-EGFP vector transfected into cells (protein, UniProt Q8C4U3 1-314, looked up)
chain: MGVGRSARGRGGAASGVLLALAAALLAAGSASEYDYVSFQSDIGSYQSGRFYTKPPQCVDIPVDLRLCHNVGYKKMVLPNLLEHETMAEVKQQASSWVPLLNKNCHMGTQVFLCSLFAPVCLDRPIYPCRWLCEAVRDSCEPVMQFFGFYWPEMLKCDKFPEGDVCIAMTPPNTTEASKPQGTTVCPPCDNELKSEAIIEHLCASEFALRMKIKEVKKENGDKKIVPKKKKPLKLGPIKKKELKRLVLFLKNGADCPCHQLDNLSHNFLIMGRKVKSQYLLTAIHKWDKKNKEFKNFMKRMKNHECPTFQSVFK
modifications: full-length
notes: mouse secreted frizzled-related protein 1, expressed from full length cDNA in a pCMS-EGFP vector transfected into cells
phosphatidylserine exposure to the outer cell membrane (annexin V assay) ([1]; 6-72 h after transfection, data not shown): time- and dose-dependency of cell death to sFrp1 expression
apoptosis-inducing activity on transfection [1]: apoptosis-inducing activity of sFrp1 without preference of cell-type examined
apoptosis-inducing activity on transfection ([1]; listed as sFRP-1): leads to apoptosis in lung epithelial cells, endothelial cells and fibroblasts
active caspase 3 immunostaining [2]: presence of acive caspase 3 in and surrounding cells transfected sFrp1
